Here are results for 1 molecule from patent publication US11859229B2, “Polyvinyl alcohol-degrading enzyme and process for producing the same” (Hayashibara Co., Ltd., priority 2017, dated 2024).

Common to all, as to assay type: biochemical
Series [1] can be described thus: Detection of β-diketone hydrolyzing activity (acetone from 2,4-pentanedione by gas chromatography). Set-up: key: Yes: Acetone, a product by the hydrolysis, was qualitatively detected. As to conditions: qualitative. From the text:
As shown in the above (2), the PVA-degrading enzyme of the present invention has an activity of hydrolyzing […]-diketone, i.e., […]-diketone-hydrolyzing activity. Enzymes having β-diketone-hydrolyzing activity can hydrolyze an oxidized PVA having a […]-diketone structure (i.e., oxidized PVA). Beta-diketone-hydrolyzing activity can be detected by examining the activity of hydrolyzing 2, 4-pentanedione which is a model compound of oxidized PVA having a […]-diketone structure. Acetone and acetic acid are formed when a PVA-degrading enzyme hydrolyzes 2,4-pentanedione. Therefore, for example, […]-diketone-hydrolyzing activity can be detected by the following method using 2,4-pentanedione as a substrate.
2,4-Pentanedione (Reagent grade, commercialized by Wako Pure Chemical Industries Co., Ltd., Osaka, Japan) was added to 50 mM sodium phosphate buffer (pH 7.0) to give a concentration of 0.2% (w/v) to make into a substrate solution. To 1 mL of the substrate solution, 0.2 mL of enzyme solution and 0.8 mL of 50 mM sodium phosphate buffer (pH 7.0) were added and then the mixture was shaken at 27° C. for 3 hours for the reaction. After the reaction, 2 mL of the reaction mixture was withdrawn and put in a glass vial, and then the vial was sealed and heated at 95° C. for 40 min. […]

Series [2] is described as follows: PVA-degrading (viscosity-reducing) activity. The settings on record: at each purification step. The protocol: While, activity as a PVA-degrading enzyme can be measured, for example, by measuring the viscosity reduction of a PVA solution, caused by the degradation of PVA, as an index using the following method.
To 0.5 mL of a substrate solution prepared by dissolving PVA (Reagent grade polyvinyl alcohol, polymerization degree: 2,000, Nacalai Tesque Inc., Kyoto, Japan) into 100 mM sodium phosphate buffer (pH 7.0) to give a concentration of 2% (w/v), 15 µL of 2% (w/v) of sodium azide solution was added, and then 0.5 mL of an enzyme solution is further added and reacted with shaking at 27° C. for 60 min. After the reaction, 0.6 mL of the reaction mixture was withdrawn and its viscosity was measured using a Cone plate-type viscometer (“DV-II+Pro”, Brookfield Co., Ltd.) at 30° C. Separately, the enzyme solution was added to the substrate solution and the viscosity was measured immediately, and the viscosity was used as that at zero-min reaction. The PVA-degrading activity was calculated based on the following formula. One unit of the PVA-degrading activity was defined as the amount of enzyme that causes a 10%-reduction of relative viscosity per min under the above conditions. […]

Series [3] in a line: Optimum temperature and optimum pH of PVA-oxidizing activity. The protocol: To 0.5 mL of a substrate solution prepared by dissolving PVA (Reagent grade polyvinyl alcohol, polymerization degree: 2,000, Nacalai Tesque Inc., Kyoto, Japan) into 100 mM sodium phosphate buffer (pH 7.0) to give a concentration of 2% (w/v), 15 µL of 2% (w/v) of sodium azide solution was added, and then 0.5 mL of an enzyme solution is further added and reacted with shaking at 27° C. for 60 min. After the 60 min-reaction, the reaction was stopped by mixing 0.32 mL of the reaction mixture to 0.8 mL of a titanium reagent, and the yellow color, produced by reacting hydrogen peroxide formed by the enzyme reaction and the titanium reagent, was measured by measuring the absorbance at 410 nm (A410) as an index. Separately, the enzyme solution was added to the substrate solution, and the resulting mixture is immediately mixed with the titanium reagent. The resulting mixture was similarly measured its color and the value was used as the value at the reaction zero minutes. Then, the amount of the formed hydrogen peroxide is determined and the PVA-oxidizing activity is calculated based on the following formula. It is known that the absorbance at 410 nm (A410) increases by “1” when 3.65 […]mole/mL of hydrogen peroxide is formed. Therefore, in the following Formula 1, the coefficient of “3.65” has been multiplied. […]

Series [4] can be described thus: Thermal stability and pH stability (residual PVA-oxidizing activity). How it is done:
To 0.5 mL of a substrate solution prepared by dissolving PVA (Reagent grade polyvinyl alcohol, polymerization degree: 2,000, Nacalai Tesque Inc., Kyoto, Japan) into 100 mM sodium phosphate buffer (pH 7.0) to give a concentration of 2% (w/v), 15 µL of 2% (w/v) of sodium azide solution was added, and then 0.5 mL of an enzyme solution is further added and reacted with shaking at 27° C. for 60 min. After the 60 min-reaction, the reaction was stopped by mixing 0.32 mL of the reaction mixture to 0.8 mL of a titanium reagent, and the yellow color, produced by reacting hydrogen peroxide formed by the enzyme reaction and the titanium reagent, was measured by measuring the absorbance at 410 nm (A410) as an index. Separately, the enzyme solution was added to the substrate solution, and the resulting mixture is immediately mixed with the titanium reagent. The resulting mixture was similarly measured its color and the value was used as the value at the reaction zero minutes. Then, the amount of the formed hydrogen peroxide is determined and the PVA-oxidizing activity is calculated based on the following formula. It is known that the absorbance at 410 nm (A410) increases by “1” when 3.65 […]mole/mL of hydrogen peroxide is formed. […]
In the two purified preparations of the PVA-degrading enzyme, PVA-A was used for investigating thermal stability and pH stability using PVA-oxidizing activity as an index according to the assay method. Thermal stability was determined by the steps of incubating the enzyme solution (in 10 mM phosphate buffer, pH 7.0) at various temperature for 60 min, cooling in water, and then measuring the residual enzyme activity. pH Stability was determined by the steps of incubating the enzyme solution in 100 mM buffer with different pH at 4° C. for 24 hours, adjusting pH to 7.0, and then measuring the residual enzyme activity. […] In FIG. 6, symbols, “●”, “▪”, “▴” and “♦”, mean values measured by using acetate buffer, phosphate buffer, glycine-NaOH buffer, and potassium chloride-NaOH buffer, respectively, for pH control.

A short description of series [5]: Assay for PVA-oxidizing activity (hydrogen peroxide formation, titanium reagent, A410). How it is done:
As shown in the above (1), the PVA-degrading enzyme of the present invention has an PVA-oxidizing activity, i.e., an activity of catalyzing the reaction of oxidizing PVA as substrate and forming hydrogen peroxide. For example, the PVA-oxidizing activity can be measured by the following method.
To 0.5 mL of a substrate solution prepared by dissolving PVA (Reagent grade polyvinyl alcohol, polymerization degree: 2,000, Nacalai Tesque Inc., Kyoto, Japan) into 100 mM sodium phosphate buffer (pH 7.0) to give a concentration of 2% (w/v), 15 µL of 2% (w/v) of sodium azide solution was added, and then 0.5 mL of an enzyme solution is further added and reacted with shaking at 27° C. for 60 min. After the 60 min-reaction, the reaction was stopped by mixing 0.32 mL of the reaction mixture to 0.8 mL of a titanium reagent, and the yellow color, produced by reacting hydrogen peroxide formed by the enzyme reaction and the titanium reagent, was measured by measuring the absorbance at 410 nm (A410) as an index. Separately, the enzyme solution was added to the substrate solution, and the resulting mixture is immediately mixed with the titanium reagent. The resulting mixture was similarly measured its color and the value was used as the value at the reaction zero minutes. Then, the amount of the formed hydrogen peroxide is determined and the PVA-oxidizing activity is calculated based on the following formula. It is known that the absorbance at 410 nm (A410) increases by “1” when 3.65 […]mole/mL of hydrogen peroxide is formed. Therefore, in the following Formula 1, the coefficient of “3.65” has been multiplied. One unit of the PVA-oxidizing activity is defined as the amount of enzyme that forms 1 […]mole of hydrogen peroxide per min under the above conditions. Titanium reagent is prepared by diluting 5% titanium sulfate (IV) solution, commercialized by Nacalai Tesque Inc., Kyoto, Japan, 25-fold with 10% (w/w) sulfuric acid.

B1: PVA-B: purified PVA-degrading hybrid enzyme from Pseudomonas sp. VT1B strain, amino acid sequence of SEQ ID NO: 3 (protein, listed as Pseudomonas sp.)
chain: AENWPMFGKNYENSRATADTQLSTSNISSLNVVRRTADGGITGTPTVVDGVAYYSDFSGYVKAVRVNDGAVLWRVRPQTTMLSPSPFVTDDTVYVAGNNSYVYALNRLDGAVRWTTQIETSPNSRISSSPIVVDNILMIGTGSYQVFIPATPMFRGRVVFLNATTGAILPYSTNMCPEGLCGGGISVWSTAAVDVSTRTGYIGTGQAYRDPAGPYSDSLVAFDIDTGAIRWSQQFLANDVYQLGGVLRYDYDVGAAPNLFVADERRMVGVGGKDGTYRAFDRDTGAPIWTTPVGRGSPIGGVMQSTAYGDGRIYVTSNTSTIGGGRNDPVPATAEALALDAATGTPVWIRQLDAGGFGGVAYANGLMYASVWDGRMRVFNAANGNIVKEVQVSPSRGVYVAAPTDGFPNGSAGGPIVYGNRVLMGYGWTWVLNISGGLATMELVSGGGETQTVTLASNQDTYVQSGTPTTSYNANEFLLARLADAEGLTRASFLQFPLTAIPAGTITSARLRLYGRHDAPTGTGQPVSVWPGTFTTPWNGADVIYNNSDLVTGVNFYLTSPIANALIGITPQYYEWDVTGYVDSRRALGHATFGVAVDYGHLYRVTFNSADNAANRPELVVAVSTGGTSEPDPELPPGSMEGSCPAGFTPRAGVNQGFIHNGVARGFVLNVPANVSTPRPMFVSLTGSVESTNENLGPRGGAGALTNDGFLVIGPVRRCAGQDPNGSGTSVGGGTCNQPGTGGWNWNPWNEGRAFGAAGDQWKTAEGPDSEFLESVARCVAKRFPVDSKRMYLGGISSGGTLTNRALLFNSDFWAGGLPISGEWYVTRDDGTAYPGPDEFAARRQAVIDDPTKIFQGRVGPLPLRSTLDPMIVITVWGGTNDVWSCDGVTLCADYRPSTQVASNYFSAQPNVVHVACSSSHGHQWPTINRAAFNTWAATTLASHPKGTPASAFVLPPPPAGYTCRIGPYIDHYERACSVDGDGDIDRNDIAVITAARNQPASGPTDLRDVDRSGVIDVNDARACTLRCDRPNCAVQ
As to B1, the “2,4-Pentanedione-Degrading Activity” value in series [1] is listed as “Yes*”. Further, the “Total PVA-Degrading Activity (Viscosity-reducing Activity)” value in series [2] was 8.4 U. Also, the “Optimum pH of PVA-oxidizing activity” value in series [3] (60 min-reaction at 27° C.) was “almost the same”. Besides, the “Optimum temperature of PVA-oxidizing activity” value in series [3] (60 min-reaction at pH 7.0) is “almost the same”. Further, in series [4] (10 mM phosphate buffer, pH 7.0, 60 min), the “Thermal stability of PVA-oxidizing activity” value is “almost the same”. For the same molecule, the “pH stability of PVA-oxidizing activity” value in series [4] (100 mM buffer, 4° C. for 24 hours) is “almost the same”. In series [5] (PVA-oxidizing activity per mg protein at each purification step), this molecule showed a Specific activity of 1.9 U/mg. Moreover, the “Total Activity (PVA-oxidizing activity)” value in series [5] (at each purification step, from 4 L culture supernatant) turned out to be 3.3 U.
